Source: the supplement of paper PMC11246515
± gives the standard deviation of the averaged measurements.

Assay: total protein half-life in vivo (active degradation + dilution); higher = more stable protein
[1] = E. coli NCM3722 delta-clpP delta-lon delta-hslV, growth: N-lim chemostat, doubling time 6 h
[2] = E. coli NCM3722 delta-clpP, growth: N-lim chemostat, doubling time 6 h
[3] = E. coli NCM3722 delta-hslV, growth: N-lim chemostat, doubling time 6 h
[4] = E. coli NCM3722 delta-lon, growth: N-lim chemostat, doubling time 6 h
[5] = E. coli NCM3722 delta-smpB, growth: N-lim chemostat, doubling time 6 h
[6] = wild type E. coli NCM3722, growth: C-lim chemostat, doubling time 3 h
[7] = wild type E. coli NCM3722, growth: C-lim chemostat, doubling time 6 h
[8] = wild type E. coli NCM3722, growth: C-lim chemostat, doubling time 12 h
[9] = wild type E. coli NCM3722, growth: N-lim chemostat, doubling time 6 h
[10] = wild type E. coli NCM3722, growth: N-lim chemostat, doubling time 12 h
[11] = wild type E. coli NCM3722, growth: P-lim chemostat, doubling time 6 h
[12] = wild type E. coli NCM3722, growth: P-lim chemostat, doubling time 12 h

| Sequence | total protein half-life in vivo [1] [h] | total protein half-life in vivo [2] [h] | total protein half-life in vivo [3] [h] | total protein half-life in vivo [4] [h] | total protein half-life in vivo [5] [h] | total protein half-life in vivo [6] [h] | total protein half-life in vivo [7] [h] | total protein half-life in vivo [8] [h] | total protein half-life in vivo [9] [h] | total protein half-life in vivo [10] [h] | total protein half-life in vivo [11] [h] | total protein half-life in vivo [12] [h] |
| --- | --- | --- | --- | --- | --- | --- | --- | --- | --- | --- | --- | --- |
| MKPSSSNSRSKGHAKARRKTREELDQEARDRKRQKKRRGHAPGSRAAGGNTTSGSKGQNAPKDPRIGSKTPIPLGVTEKVTKQHKPKSEKPMLSPQAELELLETDERLDALLERLEAGETLSAEEQSWVDAKLDRIDELMQKLGLSYDDDEEEEEDEKQEDMMRLLRGN [P0A8H6] | 5.38 ± 0.29 | 5.18 ± 0.7 | 4.08 ± 0.55 | 3.93 ± 0.22 | 4.09 ± 1.7 | 2.52 ± 0.0028 | 4.36 ± 0.45 | 7.24 ± 1.8 | 3.59 ± 0.17 | 5.58 ± 1 | 2.98 | 5.38 ± 0.71 |
| MISSLWIAKTGLDAQQTNMDVIANNLANVSTNGFKRQRAVFEDLLYQTIRQPGAQSSEQTTLPSGLQIGTGVRPVATERLHSQGNLSQTNNSKDVAIKGQGFFQVMLPDGSSAYTRDGSFQVDQNGQLVTAGGFQVQPAITIPANALSITIGRDGVVSVTQQGQAAPVQVGQLNLTTFMNDTGLESIGENLYTETQSSGAPNESTPGLNGAGLLYQGYVETSNVNVAEELVNMIQVQRAYEINSKAVSTTDQMLQKLTQL [P0ABX5] | 4.91 ± 2.6 | > 8 |  |  |  | 1.53 ± 0.27 | 5.1 ± 3.6 | 6.45 ± 1.9 |  |  |  |  |
| MISANRPIINLDLDLLRTFVAVADLNTFAAAAAAVCRTQSAVSQQMQRLEQLVGKELFARHGRNKLLTEHGIQLLGYARKILRFNDEACSSLMFSNLQGVLTIGASDESADTILPFLLNRVSSVYPKLALDVRVKRNAYMAEMLESQEVDLMVTTHRPSAFKALNLRTSPTHWYCAAEYILQKGEPIPLVLLDDPSPFRDMVLATLNKADIPWRLAYVASTLPAVRAAVKAGLGVTARPVEMMSPDLRVLSGVDGLPPLPDTEYLLCYDPSSNNELAQVIYQAMESYHNPWQYSPMSAPEGDDSLLIERDIE |  | 5.56 ± 0.33 | 2.546 ± 0.023 | 3.25 | 2.713 ± 0.022 | 2.45 ± 0.064 | 4.7 ± 0.26 | 7.62 ± 0.41 | 3.28 ± 1.1 | 3.66 ± 0.051 | 3.43 ± 0.079 | 6.34 ± 0.77 |
| MNSHNITNESLALALMLVVVAILISHKEKLALEKDILWSVGRAIIQLIIVGYVLKYIFSVDDASLTLLMVLFICFNAAWNAQKRSKYIAKAFISSFIAITVGAGITLAVLILSGSIEFIPMQVIPIAGMIAGNAMVAVGLCYNNLGQRVISEQQQIQEKLSLGATPKQASAILIRDSIRAALIPTVDSAKTVGLVSLPGMMSGLIFAGIDPVKAIKYQIMVTFMLLSTASLSTIIACYLTYRKFYNSRHQLVVTQLKKK |  | 6.44 ± 0.17 | 6 ± 0.27 | 5.893 ± 0.034 | 5.86 ± 0.42 | 3.19 ± 0.54 | 5.5591 ± 0.0054 | 9.93 ± 4.5 | 5.87 ± 0.81 | 8.27 ± 3 | 6.28 ± 0.1 |  |
| MLSKQIPLGIYEKALPAGECWLERLQLAKTLGFDFVEMSVDETDDRLSRLNWSREQRLALVNAIVETGVRVPSMCLSAHRRFPLGSEDDAVRAQGLEIMRKAIQFAQDVGIRVIQLAGYDVYYQEANNETRRRFRDGLKESVEMASRAQVTLAMEIMDYPLMSSISKALGYAHYLNNPWFQLYPDIGNLSAWDNDVQMELQAGIGHIVAVHVKDTKPGVFKNVPFGEGVVDFERCFETLKQSGYCGPYLIEMWSETAEDPAAEVAKARDWVKARMAKAGMVEAA | 5.97 |  |  |  |  |  |  |  |  |  |  |  |
| MKAFNKLFSLVVASVLVFSLAGCGDKEESKKFSANLNGTEIAITYVYKGDKVLKQSSETKIQFASIGATTKEDAAKTLEPLSAKYKNIAGVEEKLTYTDTYAQENVTIDMEKVDFKALQGISGINVSAEDAKKGITMAQMELVMKAAGFKEVK | 5.1 | 5.39 | 5.31 | 5.76 ± 0.26 | 4.61 ± 0.12 | 2.68 | 4.07 ± 0.38 | 7.55 | 5.76 ± 0.11 | 9.71 ± 1.6 | 5.3 |  |
| MQFDWSAIWPAIPLLIEGAKMTLWISVLGLAGGLVIGLLAGFARTFGGWIANHVALVFIEVIRGTPIVVQVMFIYFALPMAFNDLRIDPFTAAVVTIMINSGAYIAEITRGAVLSIHKGFREAGLALGLSRWETIRYVILPLALRRMLPPLGNQWIISIKDTSLFIVIGVAELTRQGQEIIAGNFRALEIWSAVAVFYLIITLVLSFILRRLERRMKIL [P0AEQ6] | 7.5 ± 0.32 | 5.86 ± 0.24 | 6.66 ± 0.23 | 5.82 ± 0.19 | 6.3 ± 1.3 | 3.216 ± 0.017 | 6.15 ± 0.25 |  | 6.75 ± 0.56 | 11.4 ± 4.3 |  | 13 ± 0.43 |
| MMNPLIIKLGGVLLDSEEALERLFSALVNYRESHQRPLVIVHGGGCVVDELMKGLNLPVKKKNGLRVTPADQIDIITGALAGTANKTLLAWAKKHQIAAVGLFLGDGDSVKVTQLDEELGHVGLAQPGSPKLINSLLENGYLPVVSSIGVTDEGQLMNVNADQAATALAATLGADLILLSDVSGILDGKGQRIAEMTAAKAEQLIEQGIITDGMIVKVNAALDAARTLGRPVDIASWRHAEQLPALFNGMPMGTRILA [P0A6C8] | 4.97 ± 0.82 | 3.77 ± 0.19 | 3.36 ± 0.25 | 4.45 ± 0.17 | 3.02 ± 0.15 | 2.84 ± 0.045 | 5.19 ± 0.41 | 10.3 ± 3.4 | 3.404 ± 0.033 | 4.813 ± 0.046 | 4.58 ± 0.39 | 7.92 ± 0.16 |
| MNLQHHFLIAMPALQDPIFRRSVVYICEHNTNGAMGIIVNKPLENLKIEGILEKLKITPEPRDESIRLDKPVMLGGPLAEDRGFILHTPPSNFASSIRISDNTVMTTSRDVLETLGTDKQPSDVLVALGYASWEKGQLEQEILDNAWLTAPADLNILFKTPIADRWREAAKLIGVDILTMPGVAGHA [P0A8W5] | 4.47 ± 0.45 | 5.88 ± 1.8 | 4.32 ± 0.34 | 2.88 ± 0.18 | 4.027 ± 0.034 | 2.93 ± 0.32 | 5.38 ± 0.81 | 8.21 ± 0.33 | 4.39 ± 0.34 | 6.81 ± 0.54 | 5.075 ± 0.018 | 10.2 ± 2.2 |
